Measured values published in patent US20220242946A1 (Johns Hopkins, published 2022).
Read-outs that look alike come from different tables or passages of the source.

What was measured:
[1] = target: T1, biotinylated human IL-2 immobilized on streptavidin-coated tips (human, UniProt P60568 21-153, biotinylated (site not stated)); assay: bio-layer interferometry equilibrium titration, biotinylated hIL-2 on streptavidin tips
T1 construct: The construct used for biotinylated hIL-2 is not described; probably as the soluble hIL-2 (residues 1-133) with tags; also called biotinylated hIL-2; immobilized hIL-2; not shown: tags of the biotinylated hIL-2 are not described (the biotin acceptor peptide is told only for hIL-2Ra and hIL-2Rb)
T1 sequence (P60568 21-153): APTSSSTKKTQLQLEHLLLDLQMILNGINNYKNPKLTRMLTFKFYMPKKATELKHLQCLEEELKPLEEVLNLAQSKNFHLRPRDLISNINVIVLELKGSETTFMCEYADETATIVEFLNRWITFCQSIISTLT
Method: (§1) Less than 5 signal units (nm) of receptor was immobilized to minimize mass transfer effects. […] Surface regeneration for all interactions was conducted using a 15 second exposure to 0.1 M glycine pH 3.0. Experiments were carried out in PB SA (phosphate-buffered saline, pH 7.3 plus 0.1% bovine serum albumin (BSA, Thermo Fisher Scientific)) at 25° C. Data was visualized and processed using the Octet® Data Analysis software version 7.1 (Molecular Devices). Equilibrium titration curve fitting and KD value determination was implemented using GraphPad Prism, assuming all binding interactions to be first order.

[2] = target: human IL-2 (residues 1-133) displayed on the surface of yeast (human, UniProt P60568 21-153); assay: titration of soluble antibody on yeast-displayed hIL-2, flow cytometry; apparent bivalent affinity
human IL-2 (residues 1-133) displayed on the surface of yeast, sequence (P60568 21-153 limits assumed): as the sequence (P60568 21-153) above
Method: After a final wash, cells were analyzed for antibody binding using a CytoFLEX flow cytometer (Beckman Coulter). Background-subtracted and normalized binding curves were fitted to a first-order binding model and equilibrium dissociation constant (KD) values were determined using GraphPad Prism.
After a 3-day incubation, secreted protein was captured from the supernatant with protein G resin, eluted with 0.1 M glycine pH 2.0, and analyzed via SDS-PAGE. […] Immunocytokine expression was scaled up in HEK 293F cells and the secreted protein was purified via protein G affinity chromatography followed by size-exclusion chromatography.

[3] = target: T1, biotinylated human IL-2 immobilized on …; assay: bio-layer interferometry equilibrium titration, biotinylated hIL-2 on streptavidin tips; remark: listed apart in the source
Method: as §1

B1: recombinant F5111 antibody (human IgG1 lambda) (antibody, V domains shown)
VH: QLQLQESGPGLVKPSQTLSLTCTVSGGSISSGGYYWSWIRQHPGKGLEWIGYIYYSGSTYYNPSLKSRVTISVDTSKNQFSLKLSSVTAADTAVYYCARTPTVTGDWFDPWGRGTLVTVSS
VL: SNFMLTQPHSVSESPGKTVTISCTRSSGSIASNYVQWYQQRPGSSPTTVIYEDNQRPSGVPDRFSGSIDSSSNSASLTISGLKTEDEADYYCQSYDSSNVVFGGGTKLTVLG
notes: Expressed in HEK 293F cells; also called F5111 Ab; monoclonal antibody F5111
- EC50 (read off the curve) [1]: ~3 nM
- Kd [2]: 0.42 nM
- EC50 (read off the curve) [3]: ~0.6 nM
